Target: Sulfolobus acidocaldarius GPN-loop GTPase Saci1281 (SaGPN) (Sulfolobus acidocaldarius)
Assay: SEC

A stoichiometry N of 2 was found for “Sulfolobus acidocaldarius GPN-loop GTPase Saci1281 (SaGPN) (enzyme)” in this work.
